Results from patent US20100248978, “METHOD FOR IDENTIFYING THE INTERACTION PARTNER OF AN ACTIVE AGENT” (Bayer Cropscience AG, published 2010).

T1: p-hydroxyphenylpyruvate dioxygenase (HPPD) (Arabidopsis thaliana, UniProt P93836 P93836:1-445)
T1 sequence: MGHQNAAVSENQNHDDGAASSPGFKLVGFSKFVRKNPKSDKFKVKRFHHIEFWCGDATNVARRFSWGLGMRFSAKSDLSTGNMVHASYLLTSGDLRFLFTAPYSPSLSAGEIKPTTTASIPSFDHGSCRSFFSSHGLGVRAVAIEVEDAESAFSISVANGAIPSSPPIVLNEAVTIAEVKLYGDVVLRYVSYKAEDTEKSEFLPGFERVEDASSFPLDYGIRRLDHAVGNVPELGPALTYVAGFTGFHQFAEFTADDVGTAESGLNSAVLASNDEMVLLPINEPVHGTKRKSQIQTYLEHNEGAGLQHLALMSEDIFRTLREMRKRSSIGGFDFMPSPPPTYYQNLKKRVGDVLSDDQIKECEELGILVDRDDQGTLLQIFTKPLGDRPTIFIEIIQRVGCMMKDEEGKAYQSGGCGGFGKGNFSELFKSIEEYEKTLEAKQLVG


How the values were obtained:
Details in all cases: tags: His-tag; biotinylated in the SELEX runs
[1] = target: T1, p-hydroxyphenylpyruvate dioxygenase …; test: filter; nitrocellulose filter retention
Experimental: (§1) The bound RNA molecules were eluted by heating to 95° C. and amplified by RT-PCR and in vitro transcription before starting the next selection cycle. A nitrocellulose filter retention assay was used to determine binding of selected, radioactively labelled RNA libraries to recombinant protein (Methods in Enzymology, Vol 267, Combinatorial Chemistry, (1996), Abelson J. N. and Simon M. I., eds. Academic Press, San Diego). RNA library (−80 nM) was incubated with increasing concentrations of target protein in binding buffer and subsequently filtered through nitrocellulose filters which bind to proteins but not to RNA molecules. RNA bound to the target protein is retained within the complex on the filter and was quantified by a phosphoimager. Values were calculated as the percentage of total radiolabeled RNA in the reaction.
(§2) To determine the binding properties of individual aptamers isolated as part of the mixture of aptamers binding to HPPD in the previous example, aptamers were cloned into a vector, and 24 clones were sequenced. […]

[2] = target: T1, p-hydroxyphenylpyruvate dioxygenase …; test: filter; 20 mM Hepes pH 7.4, 150 mM NaCl, 3 mM MgCl2
Text: as §1, with “The T7-RNA polymerase promoter is underlined. The double stranded DNA template was used to transcribe the initial RNA library. The procedures to produce an RNA library and to perform a SELEX experiment are well known to a person skilled in the art and described in, e.g., Methods in Enzymology, Vol 267, Combinatorial Chemistry (1996), Abelson J. N. and Simon M. I., eds. Academic Press, San Diego. Subsequently, the complexes between target and RNA were captured on streptavidin-coated beads and unbound RNA was removed by washing with binding buffer. The” for “The”, “reaction. […]” for “reaction.”

[3] = target: T1, p-hydroxyphenylpyruvate dioxygenase …; test: FP; nitrocellulose filter retention (method is filter binding)
Experimental: as §1, §2

Binder | Kd [1] [nM] | other results
S116C-C18 (ssRNA) RNA: GGGAGAGGAGGGAGAUAGAUAUCAAUAUCGCCACGUUACGAGUACCAAGCUUUAUUUCCGCAGCCCGAUAGAGUUUGUCCUCACGGUGGAUGG | 832 | 
S116B-C4 (ssRNA) RNA: GGGAGAGGAGGGAGAUAGAUAUCAAGUAACAAAUGAUACUUUCCAAGCAUAAUUCAUUCGCAGCCCGAAUUAAGUUUGUCCUCACGGUGGAUGG | 740 | 
S115A-C1 (ssRNA) RNA: GGGAGAGGAGGGAGAUAGAUAUCAACAAUGACUAGCCGUGUAAGUGGUCUCGUACAUCCGAAAAAGACGACCCAGUUUGUCCUCACGGUGGAUGG |  | Kd [2]: 128 nM
S116D-C8 (ssRNA) RNA: GGGAGAGGAGGGAGAUAGAUAUCAAUAAAGUCGGUGACACCACGCAUCCAAAUACCGGUACGCGGAACUAAUAGUUUGUCCUCACGGUGGAUGG |  | Kd [3]: 120 nM
